Experimental data published in patent publication US20110065633A1, “ESTER-BASED PEPTIDE PRODRUGS” (INDIANA UNIVERSITY RESEARCH AND TECHNOLOGY CORPORATION, priority 2008, published 2011).
Where no end group is shown, it is not given here. Side-chain parts run from the residue outwards. [ ]: non-standard residue; d: D form. The star is where a group is joined. Desaminohistidyl = O=C(CCc1c[nH]cn1)*; PLA = phenyl lactic acid; Aib = CC(C)(N)C(=O)O

Key:
[1] = biological target: T1, GLP-1 receptor (Homo sapiens, UniProt P43220); assay: Luciferase-based reporter gene assay for cAMP detection, GLP-1 receptor; assay type: cell-based; parameters: expressed in transfected cells; host or cells: HEK293; details: for Potency compared with native GLP-1: luciferase assay, in vitro
Target sequence in this assay (P43220 24-463, species assumed): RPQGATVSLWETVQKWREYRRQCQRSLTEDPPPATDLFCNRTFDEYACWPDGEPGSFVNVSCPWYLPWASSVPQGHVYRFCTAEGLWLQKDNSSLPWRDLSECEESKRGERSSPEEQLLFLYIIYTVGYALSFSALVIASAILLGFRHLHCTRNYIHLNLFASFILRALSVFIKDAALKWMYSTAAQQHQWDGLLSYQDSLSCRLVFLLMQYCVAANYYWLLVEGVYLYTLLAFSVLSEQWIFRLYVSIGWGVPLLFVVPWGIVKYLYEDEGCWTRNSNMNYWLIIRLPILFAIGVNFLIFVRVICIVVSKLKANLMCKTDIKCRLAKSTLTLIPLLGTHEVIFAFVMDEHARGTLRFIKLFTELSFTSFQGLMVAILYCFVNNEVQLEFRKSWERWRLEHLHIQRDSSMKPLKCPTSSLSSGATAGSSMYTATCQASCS

[2] = biological target: T1, GLP-1 receptor; assay: cell-based or functional assay
Target sequence in this assay (P43220 24-463 limits assumed): as the sequence (P43220 24-463, species assumed) above

[3] = biological target: glucagon receptor (UniProt P47871); assay: cell-based or functional assay
[4] = biological target: glucagon receptor (UniProt P47871); assay: cell-based or functional assay; remark: listed apart in the source
[5] = tested on: diabetes-induced obesity (DIO) mice; assay: Blood glucose after glucose injection in DIO mice; assay type: in vivo; details: for blood glucose after glucose injection compared with corresponding non-prodrug form: 2 nmol/kg intraperitoneally 15 min before […] glucose, FIGS. 12, 13; for blood glucose concentrations compared with vehicle control: 15 or 70 nmol/kg intraperitoneally 60 min before […] glucose, FIG. 15
Method: Six groups of diabetes-induced obesity (DIO) mice (eight mice per group) having an initial average body weight of 49.5 g were intraperitoneally injected with 2 nmol/kg of a PBS vehicle control or one of Peptides A-E described below:
(§1) Fifteen minutes after injection with one of the compounds or with vehicle control (at time point 0), a 25% (w/v) glucose saline solution was injected at a dose of 1.5 g per kg of body weight. Blood glucose concentrations of the mice were measured at the time of injection of the compound or vehicle control, at the time of glucose injection, and at 15, 30, 60, and 120 minutes after glucose injection.
Blood glucose levels of the mice were measured as described in Example 5.
(§2) Nine groups of diabetes-induced obesity (DIO) mice (8 mice per group) having an initial average body weight of 56 g were intraperitoneally injected once and followed for one week with 15 or 70 nmol/kg of Peptides Y, Z, F-Peg, and G-Peg described below or PBS vehicle control.
as §1, with “Sixty” for “Fifteen”, “peptides” for “compounds”, “peptide” for “compound”, “control (at time point −60),” for “control,”, “injection (at time point 0),” for “injection,”

[6] = tested on: diabetes-induced obesity (DIO) mice; assay: Body weight and food intake of DIO mice over one week; assay type: in vivo; details: single injection 15 or 70 nmol/kg; for total efficacy as measured over a week study: prodrug versus non-prodrug; for total food intake: FIG. 17
Method: as §2
The body weight of each mouse of each group was measured on 1, 3, 5, and 7 days after injection with the vehicle control or peptide. Total change in body weight was calculated by substracting the average body weight of a group at the time of injection with vehicle or peptide from the average body weight of the group seven days after injection. Food intake by each group of mice was measured during the course of the week as well. Total food intake was measured seven days after injection with vehicle control or peptide. […] The Ser11 substitution or the des-amino His7 reduces total efficacy.

[7] = biological target: GLP-1 receptor (UniProt P43220 24-463, limits assumed); assay: cell-based or functional assay

glucagon receptor, sequence (P47871 26-477 limits assumed): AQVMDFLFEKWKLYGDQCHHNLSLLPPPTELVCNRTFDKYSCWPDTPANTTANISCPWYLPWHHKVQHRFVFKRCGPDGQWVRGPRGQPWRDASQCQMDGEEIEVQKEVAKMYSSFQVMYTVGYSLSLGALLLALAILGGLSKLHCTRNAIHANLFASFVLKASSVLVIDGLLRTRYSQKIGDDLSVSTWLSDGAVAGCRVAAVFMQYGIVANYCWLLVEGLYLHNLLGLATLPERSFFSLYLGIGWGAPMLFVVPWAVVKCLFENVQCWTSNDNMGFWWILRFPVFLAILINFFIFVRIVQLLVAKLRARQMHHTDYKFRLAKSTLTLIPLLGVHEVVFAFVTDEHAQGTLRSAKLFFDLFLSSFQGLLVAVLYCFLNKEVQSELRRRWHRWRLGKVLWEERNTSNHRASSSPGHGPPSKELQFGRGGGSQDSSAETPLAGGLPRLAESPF

F^7,GLP(8-37): aa 7-37 of GLP-1 with the His at position 7 replaced with Phe (FAEGTFTSDVSSYLEGQAAKEFIAWLVKGRG; Glucagon-like peptide 1(7-37); UniProt P01275 98-128, looked up, variant H7F)
Agonist character [1]: full agonist | potency of native GLP-1 ([1]; percent of the potency of native GLP / GLP-1): 10%

G^5V^6-O-F^7,GLP(8-36)CEX (peptide)
% potency with respect to parent; before incubation [2]: 10.9% | % potency with respect to parent; prodrug incubated in PBS for 24 hrs before the assay [2]: 46% | % potency with respect to parent; prodrug incubated in PBS for 168 hrs before the assay [2]: 95.8%

Glucagon (6-CEX) analog E9, E16K20(lactam) (peptide)
Glucagon IC50 [3]: 42 nM | Glu IC50 [4]: 42 nM | GLP-1 EC50 [2]: 36 nM

Glucagon (6-CEX) analog E9, K12, E16 (peptide)
Glucagon IC50 [3]: 762 nM | Glu IC50 [4]: 762 nM

Glucagon (6-CEX) analog E9, K12E16(lactam) (peptide)
Glucagon IC50 [3]: 2010 nM | Glu IC50 [4]: 2010 nM | GLP-1 EC50 [2]: 63 nM

Glucagon (6-CEX) analog [PLA6, E9, E16K20(Lactam)] (peptide)
Glucagon IC50 [3]: 20 nM

Glucagon (6-CEX) analog [PLA6, E9, K12E16(Lactam) (peptide)
Glucagon IC50 [3]: 72 nM | Glu IC50 [4]: 72 nM | GLP-1 EC50 [2]: 6 nM

HAEGTFTSDVSSYLEGQAAKEFIAWLVKGRGKRNRNNIA [GLP-oxyntomodulin, GLP-oxyntomodulin chimeric peptide]
Potency compared with native GLP-1 [1]: at least as potent as the native GLP-1 peptide

HO-FAEGTFTSDVSSYLEGQAAKEFIAWLVKGXPSSGAPPPS [HO—F^7,GLP(8-36)-CEX]
% potency with respect to parent ([1]; Table 7, before incubation (0 hrs), parent drug as such): 100% (parent drug) | Potency compared with native GLP-1 [1]: at least as potent as the native GLP-1

HO-F^5F^6-O-F^7,GLP(8-36)-CEX (peptide)
% potency with respect to parent; before incubation [2]: 3.7% | % potency with respect to parent; prodrug incubated in PBS for 24 hrs before the assay [2]: 17.2%

H^7AEGTFTSDVSSYLEGQAAKEFIAWLVKGXPSSGAPPPS-amide [GLP(7-36)-CEX amide]
Potency compared with native GLP-1 [1]: approximately ten times more potent in vitro than the native GLP-1 sequence

Peptide A: prodrug of Peptide B, dipeptide d-Phe-dPhe attached via the O-terminus ({dF-dF-PLA}-[Aib]EGTFTSDVSSYLEEQAAKEFIAWLVKGRPSSGAPPPS-NH2; also: PLA bonded to D-Phe via an ester bond)
blood glucose after glucose injection compared with corresponding non-prodrug form [5]: higher than the blood glucose levels of mice injected with the corresponding non-prodrug forms

Peptide C: prodrug of Peptide B, dipeptide d-Phe-d-Val attached via the O-terminus ({dF-dV-PLA}-[Aib]EGTFTSDVSSYLEEQAAKEFIAWLVKGRPSSGAPPPS-NH2; also: PLA bonded to D-Val via an ester bond)
blood glucose after glucose injection compared with corresponding non-prodrug form [5]: higher than the blood glucose levels of mice injected with the corresponding non-prodrug forms

Peptide E: prodrug of Peptide D, d-Phe-d-Val ester-linked to Ser at position 11 (H[Aib]EGS([dV-dF])FTSDVSSYLEEQAAKEFIAWLVKGRPSSGAPPPS-NH2; N-terminus assumed; SMILES CC[C@H](C)[C@H](NC(=O)[C@H](Cc1ccccc1)NC(=O)[C@H](CCC(=O)O)NC(=O)[C@H](CCCCN)NC(=O)[C@H](C)NC(=O)[C@H](C)NC(=O)[C@H](CCC(N)=O)NC(=O)[C@H](CCC(=O)O)NC(=O)[C@H](CCC(=O)O)NC(=O)[C@H](CC(C)C)NC(=O)[C@H](Cc1ccc(O)cc1)NC(=O)[C@H](CO)NC(=O)[C@H](CO)NC(=O)[C@@H](NC(=O)[C@H](CC(=O)O)NC(=O)[C@H](CO)NC(=O)[C@@H](NC(=O)[C@H](Cc1ccccc1)NC(=O)[C@H](COC(=O)[C@H](NC(=O)[C@H](N)Cc1ccccc1)C(C)C)NC(=O)CNC(=O)[C@H](CCC(=O)O)NC(=O)C(C)(C)NC(=O)[C@@H](N)Cc1c[nH]cn1)[C@@H](C)O)C(C)C)C(=O)N[C@@H](C)C(=O)N[C@@H](Cc1c[nH]c2ccccc12)C(=O)N[C@@H](CC(C)C)C(=O)N[C@H](C(=O)N[C@@H](CCCCN)C(=O)NCC(=O)N[C@@H](CCCNC(=N)N)C(=O)N1CCC[C@H]1C(=O)N[C@@H](CO)C(=O)N[C@@H](CO)C(=O)NCC(=O)N[C@@H](C)C(=O)N1CCC[C@H]1C(=O)N1CCC[C@H]1C(=O)N1CCC[C@H]1C(=O)N[C@@H](CO)C(N)=O)C(C)C)
blood glucose after glucose injection compared with corresponding non-prodrug form [5]: higher than the blood glucose levels of mice injected with the corresponding non-prodrug forms

Peptide F-Peg: Peptide F analog with Cys at 30 covalently linked to a 40 kDa PEG ([Desaminohistidyl]SEGTFTSDVSSYLEEQAAKEFIC(PEG 40 kDa)WLVKGRPSSGAPPPS-NH2)
total efficacy as measured over a week study [6]: comparable | total food intake ([6]; seven days): decreased | blood glucose concentrations compared with vehicle control [5]: less as compared to the blood glucose levels of mice injected with vehicle control

Peptide G-Peg: pegylated prodrug, d-Phe-d-Val ester-linked to the Ser at position 8 ([Desaminohistidyl]S([dV-dF])EGTFTSDVSSYLEEQAAKEFIC(PEG 40 kDa)WLVKGRPSSGAPPPS-NH2)
total efficacy as measured over a week study [6]: comparable | total food intake ([6]; seven days): decreased | blood glucose concentrations compared with vehicle control [5]: less as compared to the blood glucose levels of mice injected with vehicle control

Peptide G: prodrug of Peptide F, d-Phe-dVal ester-linked to the Ser at position 2 of Peptide F ([Desaminohistidyl]S([dV-dF])EGTFTSDVSSYLEEQAAKEFIAWLVKGRPSSGAPPPS-NH2; SMILES CC[C@H](C)[C@H](NC(=O)[C@H](Cc1ccccc1)NC(=O)[C@H](CCC(=O)O)NC(=O)[C@H](CCCCN)NC(=O)[C@H](C)NC(=O)[C@H](C)NC(=O)[C@H](CCC(N)=O)NC(=O)[C@H](CCC(=O)O)NC(=O)[C@H](CCC(=O)O)NC(=O)[C@H](CC(C)C)NC(=O)[C@H](Cc1ccc(O)cc1)NC(=O)[C@H](CO)NC(=O)[C@H](CO)NC(=O)[C@@H](NC(=O)[C@H](CC(=O)O)NC(=O)[C@H](CO)NC(=O)[C@@H](NC(=O)[C@H](Cc1ccccc1)NC(=O)[C@@H](NC(=O)CNC(=O)[C@H](CCC(=O)O)NC(=O)[C@H](COC(=O)[C@H](NC(=O)[C@H](N)Cc1ccccc1)C(C)C)NC(=O)CCc1c[nH]cn1)[C@@H](C)O)[C@@H](C)O)C(C)C)C(=O)N[C@@H](C)C(=O)N[C@@H](Cc1c[nH]c2ccccc12)C(=O)N[C@@H](CC(C)C)C(=O)N[C@H](C(=O)N[C@@H](CCCCN)C(=O)NCC(=O)N[C@@H](CCCNC(=N)N)C(=O)N1CCC[C@H]1C(=O)N[C@@H](CO)C(=O)N[C@@H](CO)C(=O)NCC(=O)N[C@@H](C)C(=O)N1CCC[C@H]1C(=O)N1CCC[C@H]1C(=O)N1CCC[C@H]1C(=O)N[C@@H](CO)C(N)=O)C(C)C)
blood glucose after glucose injection compared with corresponding non-prodrug form [5]: higher than the blood glucose levels of mice injected with its corresponding non-prodrug form

Peptide Y: GLP-1 with AIB at 8, Glu at 22, Cys at 30 linked to 40 kDa PEG, Exendin 4 extension (H[Aib]EGTFTSDVSSYLEEQAAKEFIC(PEG 40 kDa)WLVKGRPSSGAPPPS-NH2)
total food intake ([6]; seven days): decreased | potency in decreasing appetite and decreasing body weight ([6]; seven days, FIGS. 16, 17): most potent of the four peptides | blood glucose concentrations compared with vehicle control [5]: less as compared to the blood glucose levels of mice injected with vehicle control

Peptide Z: pegylated (40 kDa) GLP-1-based prodrug, d-Phe-d-Val ester-linked to Ser at position 11 (H[Aib]EGS([dV-dF])FTSDVSSYLEEQAAKEFIC(PEG 40 kDa)WLVKGRPSSGAPPPS-NH2)
total food intake ([6]; seven days): decreased | blood glucose concentrations compared with vehicle control [5]: less as compared to the blood glucose levels of mice injected with vehicle control

HSQGTFTSDYARYLDARRAREFIKWLVRGRG [ANK2 (Bayer peptide)]
GLP-1 EC50 [7]: 0.28 nM
